The source of these data is patent publication US20260062456A1.

In assay [1] the target is CD112R endogenously expressed on Jurkat/IL-2 reporter cells (Jurkat parental) (UniProt Q6DKI7). The assay can be described thus: flow cytometry, Jurkat parental. (In general: Flow cytometry measures light scatter and fluorescence of single cells or particles in a stream.)
In assay [2] the target is human PD-1 and human TIGIT both stably expressed on Jurkat cells (Jurkat/PD-1/TIGIT cells). Briefly: flow cytometry, Jurkat/PD-1/TIGIT cells, 20 nM.
A further assay addresses T1, rB7H6.Fc (human) (UniProt Q68D85).
T1 sequence (looked up): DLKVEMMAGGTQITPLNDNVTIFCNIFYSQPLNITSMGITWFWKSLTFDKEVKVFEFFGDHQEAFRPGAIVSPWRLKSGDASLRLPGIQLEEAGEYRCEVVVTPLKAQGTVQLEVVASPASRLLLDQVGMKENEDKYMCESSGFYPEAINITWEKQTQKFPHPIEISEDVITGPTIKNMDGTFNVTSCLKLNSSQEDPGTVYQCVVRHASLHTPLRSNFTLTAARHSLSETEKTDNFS
The assay can be described thus: flow cytometry of yeast display strain stained with 16.6 nM rB7H6.Fc.

Chain of CD112R endogenously expressed on Jurkat/IL-2 reporter cells (Jurkat parental) (Q6DKI7 whole entry): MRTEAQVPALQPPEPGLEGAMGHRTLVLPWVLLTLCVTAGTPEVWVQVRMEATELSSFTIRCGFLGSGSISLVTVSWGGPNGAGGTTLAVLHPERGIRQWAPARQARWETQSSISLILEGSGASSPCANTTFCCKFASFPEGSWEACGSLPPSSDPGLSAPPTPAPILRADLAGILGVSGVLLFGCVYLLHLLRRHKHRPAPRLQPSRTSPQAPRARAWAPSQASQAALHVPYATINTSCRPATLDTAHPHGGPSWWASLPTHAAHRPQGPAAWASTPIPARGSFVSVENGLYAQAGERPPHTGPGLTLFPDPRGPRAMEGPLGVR

As to “non-stack variant PD-L1 IgV-Fc control (D43G/N45D/L56Q/V58A/G101G-ins (G101GG)) (Fc fusion)”, in assay [1], the MFI at 33.3nM amounted to 100 MFI. In addition, the MFI at 20 nM in assay [2] amounted to 41400 MFI.

In the assay with rB7H6.Fc (human), “parental NKp30 strain (yeast-displayed wild-type NKp30 IgC-like domain) (from UniProt O14931 19-134) (receptor)” came in with an MFI of 90 MFI.
